The series is described as follows: self-splicing fitness, log relative to wild type (ln ratio); higher = more splicing; Tetrahymena group I intron in knt gene, E. coli kanamycin selection, DiMSum; sequences stand for … in CUCUCU…GGAGGGAAAAGUUAUCAGGCAUGCACCUGGUAGCUAGUCUUUAAACCAAUAGAUUGCAUCGGUUUAAAAGGCAAGACCGUCAAAUUGCGGGAAAGGGGUCAACAGCCGUUCAGUACCAAGUCUCAGGGGAAACUUUGAGAUGGCCUUGCAAAGGGUAUGGUAAUAAGCUGACGGACAUGGUCCUAACCACGCAGCCAAGUCCUAAGUCAACAGAUCUUCUGUUGAUAUGGAUGCAGUUCACAGACUAAAUGUCGGUCGGGGAAGAUGUAUUCUUCUCAUAAGAUAUAGUCGGACCUCUCCUUAAUGGGAGCUAGCGGAUGAAGUGAUGCAACACUGGAGCCGCUGGGAACUAAUUUGUAUGCGAAAGUAUAUUGAUUAGUUUUGGAGUACUCGUGGUCG
In a few lines:
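Pooled colonies went to amplicon sequencing on an Illumina HiSeq 2500 after six replicate transformations. The plates were LB agar with 100 μg/mL carbenicillin, 50 μM IPTG and 0.2% rhamnose, with or without 25 μg/mL kanamycin, incubated overnight at 37°C or 30°C. The E. coli BL21(DE3) library had all eight P1ex-region intron nucleotides randomised, the intron placed in the knt kanamycin-resistance gene on pET-22b(+). DiMSum fitness is the error-weighted combination of replicate fold changes, kanamycin against none, normalised to wild type.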

Experimental findings from the supplement of paper PMC7877785 are described below.

± gives the uncertainty stated by the source.

As to UUCGAGCAAUAUUACGCUAC, the “self-splicing fitness (ln)” value (37 °C) is -0.0805 ± 0.34.

In the case of CGCAAGCAAUAUUACGAUCA, the “self-splicing fitness (ln)” value is -1.58 ± 0.12 (30 °C) and 0.00155 ± 0.11 (37 °C).

Turning to UGUUAGCAAUAUUACGAUUA, the “self-splicing fitness (ln)” value was -0.127 ± 0.093 (30 °C) and 0.424 ± 0.11 (37 °C).

For the sequence ACUAAGCAAUAUUACGCGCA, the “self-splicing fitness (ln)” value is -0.252 ± 0.067 (30 °C) and -0.518 ± 0.085 (37 °C).

Regarding CCUAAGCAAUAUUACGGACC, the “self-splicing fitness (ln)” value (30 °C) was -3.02 ± 0.49.

On to ACGCAGCAAUAUUACGGACC, for which the “self-splicing fitness (ln)” value (30 °C) is -1.95 ± 0.15 and the “self-splicing fitness (ln)” value (37 °C) came to 0.559 ± 0.18.

GUCUAGCAAUAUUACGGGUU: the “self-splicing fitness (ln)” value by setting is: (30 °C) -1.92 ± 0.082; (37 °C) -0.234 ± 0.083.

Take GGCAAGCAAUAUUACGGGAA: the “self-splicing fitness (ln)” value runs as follows: (30 °C) -1.34 ± 0.12; (37 °C) -1.16 ± 0.13.

Regarding AGUGAGCAAUAUUACGUGCU, the “self-splicing fitness (ln)” value (30 °C) was -1.86 ± 0.28.

For AUAUAGCAAUAUUACGCCGC, the “self-splicing fitness (ln)” value (30 °C) is -2.58 ± 0.49.

For AAUUAGCAAUAUUACGGUCA, the “self-splicing fitness (ln)” value reads like this: (30 °C) 0.31 ± 0.12; (37 °C) -0.629 ± 0.098.

Take ACCGAGCAAUAUUACGUGAU: the “self-splicing fitness (ln)” value runs as follows: (30 °C) -3.36 ± 0.13; (37 °C) -2.06 ± 0.12.

Take CUUCAGCAAUAUUACGGCGU: the “self-splicing fitness (ln)” value (30 °C) was -4.44 ± 0.24 and the “self-splicing fitness (ln)” value (37 °C) is -1.8 ± 0.17.

For UGUGAGCAAUAUUACGAUUG, the “self-splicing fitness (ln)” value (30 °C) was -2.19 ± 0.26 and the “self-splicing fitness (ln)” value (37 °C) was -0.226 ± 0.26.

On to GAAGAGCAAUAUUACGUACC, for which the “self-splicing fitness (ln)” value is, setting by setting: (30 °C) -1.6 ± 0.2; (37 °C) -1.49 ± 0.19.

Consider AUGGAGCAAUAUUACGUGAU, for which the “self-splicing fitness (ln)” value is, setting by setting: (30 °C) -2.73 ± 0.088; (37 °C) -0.769 ± 0.08.

Consider UGCUAGCAAUAUUACGUUGU, for which the “self-splicing fitness (ln)” value reads like this: (30 °C) -2.59 ± 0.17; (37 °C) -3.8 ± 0.34.

For the sequence GUGUAGCAAUAUUACGGUCG, the “self-splicing fitness (ln)” value was -1.32 ± 0.16 (30 °C) and -0.824 ± 0.25 (37 °C).

Take UCCGAGCAAUAUUACGAUGG: the “self-splicing fitness (ln)” value (30 °C) was -0.964 ± 0.097 and the “self-splicing fitness (ln)” value (37 °C) is -0.212 ± 0.12.

As for GGGGAGCAAUAUUACGUAUA, the “self-splicing fitness (ln)” value (30 °C) is -1.69 ± 0.47 and the “self-splicing fitness (ln)” value (37 °C) is -2.35 ± 0.39.

Turning to AACAAGCAAUAUUACGAUGU, the “self-splicing fitness (ln)” value reads like this: (30 °C) -1.64 ± 0.077; (37 °C) -0.411 ± 0.094.

On to GGAGAGCAAUAUUACGAUCA, for which the “self-splicing fitness (ln)” value (30 °C) is -1.04 ± 0.16 and the “self-splicing fitness (ln)” value (37 °C) is -1.73 ± 0.25.

In the case of UAAAAGCAAUAUUACGGGGC, the “self-splicing fitness (ln)” value reads like this: (30 °C) -3.59 ± 0.23; (37 °C) -2.33 ± 0.25.

UCCUAGCAAUAUUACGCAAA: the “self-splicing fitness (ln)” value (30 °C) is -2.95 ± 0.21 and the “self-splicing fitness (ln)” value (37 °C) is -1.48 ± 0.12.

With UAUUAGCAAUAUUACGCACU, the “self-splicing fitness (ln)” value is, setting by setting: (30 °C) -1.04 ± 0.19; (37 °C) -1.12 ± 0.16.

AUGAAGCAAUAUUACGUAAC: the “self-splicing fitness (ln)” value runs as follows: (30 °C) -2.45 ± 0.18; (37 °C) 0.328 ± 0.16.

Regarding AACUAGCAAUAUUACGUGGU, the “self-splicing fitness (ln)” value was -3.36 ± 0.16 (30 °C) and -2.86 ± 0.23 (37 °C).

Consider AUAUAGCAAUAUUACGAGCU, for which the “self-splicing fitness (ln)” value was -2.13 ± 0.1 (30 °C) and -1.11 ± 0.1 (37 °C).

UUCCAGCAAUAUUACGUAUU: the “self-splicing fitness (ln)” value was -3.21 ± 0.18 (30 °C) and -1.7 ± 0.19 (37 °C).

Consider UCGAAGCAAUAUUACGAUUU, for which the “self-splicing fitness (ln)” value is -4.4 ± 0.39 (30 °C) and -1.97 ± 0.23 (37 °C).

As for AAUUAGCAAUAUUACGAGAU, the “self-splicing fitness (ln)” value by setting is: (30 °C) -2.7 ± 0.17; (37 °C) -2.16 ± 0.17.

Turning to ACGGAGCAAUAUUACGAAAG, under “30 °C”, the “self-splicing fitness (ln)” value is -3.06 ± 0.31.

With UUAAAGCAAUAUUACGGGAU, the “self-splicing fitness (ln)” value is -2.8 ± 0.14 (30 °C) and -0.86 ± 0.12 (37 °C).

In the case of GUCGAGCAAUAUUACGCCCC, the “self-splicing fitness (ln)” value (30 °C) is -1.19 ± 0.37 and the “self-splicing fitness (ln)” value (37 °C) was -1.01 ± 0.31.

With GUAGAGCAAUAUUACGGUUC, the “self-splicing fitness (ln)” value (30 °C) is -1.84 ± 0.11 and the “self-splicing fitness (ln)” value (37 °C) was -0.825 ± 0.14.

With AUUCAGCAAUAUUACGUCCA, the “self-splicing fitness (ln)” value was -1.19 ± 0.17 (30 °C) and -1.55 ± 0.23 (37 °C).

With AGUUAGCAAUAUUACGCAUC, the “self-splicing fitness (ln)” value (30 °C) was -3.63 ± 0.43 and the “self-splicing fitness (ln)” value (37 °C) was -1.68 ± 0.23.

Consider UCCGAGCAAUAUUACGUUUA, for which the “self-splicing fitness (ln)” value is, setting by setting: (30 °C) -2.86 ± 0.48; (37 °C) -1.71 ± 0.23.

For the sequence UCUUAGCAAUAUUACGCAUA, the “self-splicing fitness (ln)” value is -2.4 ± 0.26 (30 °C) and -1.47 ± 0.22 (37 °C).
